Data: paper PMC2877795, “Laminin chain assembly is regulated by specific coiled-coil interactions” (Journal of Structural Biology, 2010)
Values belong to the binder of their own block, whether it stands above or below them.

Columns and labels:
Conditions in all cases: both partners purified
[1] = target: T1, β1γ2 complex of the recombinant mouse laminin coiled-coil fragments (mouse, UniProt P02469 1561-1786; Q61092 949-1191); test: AUC; sedimentation equilibrium and velocity; 5 mM sodium phosphate, 150 mM NaCl, pH 7.0 (methods) or 7.4 (Table 3); 0.1-0.5 mg/ml
T1 construct: two residues (GlySer) left from the protease recognition site after thrombin cleavage; laminin β1 chain, mouse, residues 1561-1786 of the native chain; as m6; laminin γ2 chain, mouse, residues 949-1191 of the native chain; as m10; alone a heterotetramer by AUC (most likely two β1 and two γ2 chains); one chain of each in the trimer with α3; in the αβγ tests all three chains were mixed; also called …
T1 sequence 1: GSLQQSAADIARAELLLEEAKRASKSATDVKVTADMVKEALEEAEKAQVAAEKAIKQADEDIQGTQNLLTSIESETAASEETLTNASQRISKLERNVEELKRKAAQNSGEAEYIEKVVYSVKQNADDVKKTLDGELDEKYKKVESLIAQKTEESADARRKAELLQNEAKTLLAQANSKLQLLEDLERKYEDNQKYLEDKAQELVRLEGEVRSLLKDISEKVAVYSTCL
T1 sequence 2: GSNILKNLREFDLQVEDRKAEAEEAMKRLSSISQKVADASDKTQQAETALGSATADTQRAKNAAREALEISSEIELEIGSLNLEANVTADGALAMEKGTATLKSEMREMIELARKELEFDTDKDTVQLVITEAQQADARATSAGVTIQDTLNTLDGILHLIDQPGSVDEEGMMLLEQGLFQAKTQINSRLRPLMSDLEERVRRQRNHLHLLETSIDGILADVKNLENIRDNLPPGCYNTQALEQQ

[2] = target: T2, β1γ1 complex of the recombinant mouse laminin coiled-coil fragments (mouse, UniProt P02469 1561-1786; P02468 1362-1607); test: as above
T2 construct: two residues (GlySer) left from the protease recognition site after thrombin cleavage; laminin β1 chain, mouse, residues 1561-1786 of the native chain; as m6; laminin γ1 chain, mouse, residues 1362-1607 of the native chain; as m9; heterodimer by AUC; in the αβγ tests all three chains were mixed, the βγ complex was not isolated beforehand; source: mixture of the purified E. coli fragments; not …
T2 sequence 1: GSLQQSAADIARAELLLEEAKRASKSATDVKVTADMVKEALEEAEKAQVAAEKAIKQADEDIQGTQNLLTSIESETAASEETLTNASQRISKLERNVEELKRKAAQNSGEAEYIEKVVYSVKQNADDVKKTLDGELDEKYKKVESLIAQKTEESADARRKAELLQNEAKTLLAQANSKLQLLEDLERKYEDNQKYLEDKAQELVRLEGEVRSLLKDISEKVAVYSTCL
T2 sequence 2: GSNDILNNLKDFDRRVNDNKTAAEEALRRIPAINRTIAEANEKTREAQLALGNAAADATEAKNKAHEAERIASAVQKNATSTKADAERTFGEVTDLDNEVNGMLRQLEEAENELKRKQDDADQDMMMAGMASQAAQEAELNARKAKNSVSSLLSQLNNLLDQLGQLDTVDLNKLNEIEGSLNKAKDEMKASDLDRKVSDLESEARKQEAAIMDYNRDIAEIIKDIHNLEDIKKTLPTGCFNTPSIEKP

[3] = target: T3, β3γ2 complex of the recombinant mouse laminin coiled-coil fragments (mouse, UniProt Q61087 945-1168; Q61092 949-1191); test: native gel or EMSA; mixtures of one α, one β and one γ chain fragment; 10% non-denaturing PAGE (acid gels for basic complexes); mixtures reduced, heated to 70 °C for 5 min and cooled; run overnight at 50 V, room temperature, no cooling; Coomassie; bands confirmed by in-gel trypsin digestion and mass spectrometry
T3 construct: two residues (GlySer) left from the protease recognition site after thrombin cleavage; laminin β3 chain, mouse, residues 945-1168 of the native chain; as m8; laminin γ2 chain, mouse, residues 949-1191 of the native chain; as m10; in the αβγ tests all three chains were mixed, the βγ complex was not isolated beforehand; source: mixture of the purified E. coli fragments; not shown: 6xHis, …
T3 sequence 1: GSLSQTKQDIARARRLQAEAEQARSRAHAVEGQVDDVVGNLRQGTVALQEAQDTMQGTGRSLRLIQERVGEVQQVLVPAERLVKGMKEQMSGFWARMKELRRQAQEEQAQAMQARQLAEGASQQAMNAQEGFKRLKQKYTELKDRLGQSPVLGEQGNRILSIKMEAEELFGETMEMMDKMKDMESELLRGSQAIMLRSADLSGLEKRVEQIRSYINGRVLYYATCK
T3 sequence 2: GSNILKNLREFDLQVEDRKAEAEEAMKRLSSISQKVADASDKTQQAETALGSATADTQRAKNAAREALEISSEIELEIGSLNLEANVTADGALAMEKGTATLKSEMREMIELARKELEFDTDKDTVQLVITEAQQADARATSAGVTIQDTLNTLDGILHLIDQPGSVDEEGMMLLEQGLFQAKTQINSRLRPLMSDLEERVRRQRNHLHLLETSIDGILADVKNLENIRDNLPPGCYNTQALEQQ

[4] = target: T4, β2γ1 complex of the recombinant mouse laminin coiled-coil fragments (mouse, UniProt Q61292 1575-1799; P02468 1362-1607); test: as above
T4 construct: two residues (GlySer) left from the protease recognition site after thrombin cleavage; laminin β2 chain, mouse, residues 1575-1799 of the native chain; as m7; laminin γ1 chain, mouse, residues 1362-1607 of the native chain; as m9; in the αβγ tests all three chains were mixed, the βγ complex was not isolated beforehand; source: mixture of the purified E. coli fragments; not shown: 6xHis, …
T4 sequence 1: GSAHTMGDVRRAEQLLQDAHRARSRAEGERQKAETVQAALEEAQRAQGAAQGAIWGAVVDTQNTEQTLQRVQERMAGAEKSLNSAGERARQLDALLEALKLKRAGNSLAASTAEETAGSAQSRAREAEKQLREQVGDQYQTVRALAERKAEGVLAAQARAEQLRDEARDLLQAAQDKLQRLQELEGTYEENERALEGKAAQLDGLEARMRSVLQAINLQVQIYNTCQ
T4 sequence 2: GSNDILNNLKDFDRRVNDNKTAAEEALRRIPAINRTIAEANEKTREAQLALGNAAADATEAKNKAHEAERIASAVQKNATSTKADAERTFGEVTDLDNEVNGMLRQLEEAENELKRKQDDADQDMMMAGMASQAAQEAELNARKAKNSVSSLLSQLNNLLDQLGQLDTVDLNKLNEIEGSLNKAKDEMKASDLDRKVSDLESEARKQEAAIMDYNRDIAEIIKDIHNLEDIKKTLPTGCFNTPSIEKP

[5] = target: T5, recombinant mouse laminin β1 chain C-terminal coiled-coil fragment (1561–1786) (mouse, UniProt P02469 1561-1786); test: AUC; sedimentation equilibrium and velocity; 5 mM sodium phosphate, 150 mM NaCl, pH 7.0 (methods) or 7.4 (Table 3); 0.1-0.5 mg/ml
T5 construct: two residues (GlySer) left from the protease recognition site after thrombin cleavage; laminin β1 chain, mouse, C-terminal coiled-coil fragment, residues 1561-1786 of the native chain (226 residues); source: E. coli JM109(DE3), purified (Ni2+-Sepharose, denaturing, 8 M urea), 6xHis tag removed by thrombin; not shown: 6xHis, N-terminal, cleaved
T5 sequence: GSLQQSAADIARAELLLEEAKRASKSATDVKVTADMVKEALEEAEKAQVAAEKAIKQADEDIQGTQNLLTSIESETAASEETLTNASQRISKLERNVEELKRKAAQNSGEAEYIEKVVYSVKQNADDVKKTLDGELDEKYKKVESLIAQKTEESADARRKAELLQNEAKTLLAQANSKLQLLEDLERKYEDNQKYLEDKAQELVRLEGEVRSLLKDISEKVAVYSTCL

[6] = target: T5, recombinant mouse laminin β1 chain …; test: as above; remark: listed apart in the source

- stoichiometry N [1]: 1
- stoichiometry N [2]: 1
- binding result [3]: binds
- binding result [4]: binds
B1: recombinant mouse laminin α3 chain C-terminal coiled-coil fragment (2176–2397) (domain or fragment)
chain: GSYENILNAIRAAEDAASKATSASKSAFQTVIKEDLPKRAKTLSSDSEELLNEAKMTQKRLQQVSPALNSLQQTLKTVSVQKDLLDANLTVARDDLHGIQRGDIDSVVIGAKSMVREANGITSEVLDGLNPIQTDLGRIKDSYESARREDFSKALVDANNSVKKLTRKLPDLFIKIESINQQLLPLGNISDNVDRIRELIQQARDAANKVAIPMRFNGKSGVEV
notes: two residues (GlySer) left from the protease recognition site after thrombin cleavage; laminin α3 chain, mouse, C-terminal coiled-coil fragment, residues 2176-2397 of the native chain (222 residues); the printed numbers fit the long (α3B) form; source: E. coli JM109(DE3), purified (Ni2+-Sepharose, denaturing, 8 M urea), 6xHis tag removed by thrombin; not shown: 6xHis, N-terminal, cleaved; pPEP-T …

- stoichiometry N [5]: 1 γ2 per β1 (2:2)
B2: recombinant mouse laminin γ2 chain C-terminal coiled-coil fragment (949–1191) (domain or fragment)
chain: GSNILKNLREFDLQVEDRKAEAEEAMKRLSSISQKVADASDKTQQAETALGSATADTQRAKNAAREALEISSEIELEIGSLNLEANVTADGALAMEKGTATLKSEMREMIELARKELEFDTDKDTVQLVITEAQQADARATSAGVTIQDTLNTLDGILHLIDQPGSVDEEGMMLLEQGLFQAKTQINSRLRPLMSDLEERVRRQRNHLHLLETSIDGILADVKNLENIRDNLPPGCYNTQALEQQ
notes: two residues (GlySer) left from the protease recognition site after thrombin cleavage; laminin γ2 chain, mouse, C-terminal coiled-coil fragment, residues 949-1191 of the native chain (243 residues); source: E. coli JM109(DE3), purified (Ni2+-Sepharose, denaturing, 8 M urea), 6xHis tag removed by thrombin; not shown: 6xHis, N-terminal, cleaved; pPEP-T leader (short C-terminal fragment of the …)

- stoichiometry N [6]: 1
B3: recombinant mouse laminin γ1 chain C-terminal coiled-coil fragment (1362–1607) (domain or fragment)
chain: GSNDILNNLKDFDRRVNDNKTAAEEALRRIPAINRTIAEANEKTREAQLALGNAAADATEAKNKAHEAERIASAVQKNATSTKADAERTFGEVTDLDNEVNGMLRQLEEAENELKRKQDDADQDMMMAGMASQAAQEAELNARKAKNSVSSLLSQLNNLLDQLGQLDTVDLNKLNEIEGSLNKAKDEMKASDLDRKVSDLESEARKQEAAIMDYNRDIAEIIKDIHNLEDIKKTLPTGCFNTPSIEKP
notes: two residues (GlySer) left from the protease recognition site after thrombin cleavage; laminin γ1 chain, mouse, C-terminal coiled-coil fragment, residues 1362-1607 of the native chain (246 residues); source: E. coli JM109(DE3), purified (Ni2+-Sepharose, denaturing, 8 M urea), 6xHis tag removed by thrombin; not shown: 6xHis, N-terminal, cleaved; pPEP-T leader (short C-terminal fragment of the …)
